Assay: soluble on expression in E. coli; label from the status in PepcDB or PDB records

| Sequence | soluble on expression in E. coli |
| --- | --- |
| TSRNYLLLTPGPLTTSRTVKEAMLFDSCTWDDDYNIGVVEQIRQQLTALATASEGYTSVLLQGSGSYAVEAVLGSALGPQDKVLIVSNGAYGARMVEMAGLMGIAHHAYDCGEVARPDVQAIDAILNADPTISHIAMVHSETTTGMLNPIDEVGALAHRYGKTYIVDAMSSFGGIPMDIAALHIDYLISSANKCIQGVPGFAFVIAREQKLAACKGHSRSLSLDLYAQWRCMEDNHGKWRFTSPTHTVLAFAQALKELAKEGGVAARHQRYQQNQRSLVAGMRALGFNTLLDDELHSPIITAFYSPEDPQYRFSEFYRRLKEQGFVIYPGKVSQSDCFRIGNIGEVYAADITALLTAIRTAMYWTK | soluble |
| MIGEIPGVAAGQPYNSRRLAHEAGVHRPLQAGICGTKATGAESIVVSGGYKDDEDYGDVIIYTGHGGRDSAGNQVSDQSLDDSGNAALVTSYLRGLPVRVIRGSQSGSPFAPSNGYRYDGLYRVASYTSKLGIDGFLIWQFRMEAYEETPTPKITKVRALFAEPTDCAKQDPVAASGTEQPERVTSMVQRIVRSSAIADTVKAWHQDQCQTCGIHIEVPGGFYSEGAHIQALGRPHNGPDRTDNMLCLCPNCHVMLDAGAIVLSDDLIVSKNGQLVGPLRTHPKHKVNIECVRRHRERWRQLEHHHHHH | not soluble |
| SEQTEVLKPRTLADLIRILHQLFAGDEVNVEEVQAIMEAYESDPTEWAMYAKFDQYRYTRNLVDQGNGKFNLMILCWGEGHGSSIHDHTNSHCFLKMLQGNLKETLFAWPDKKSNEMVKKSERVLRENQCAYINDSVGLHRVENISHTEPAVSLHLYSPPFDTCHAFDQRTGHKNKVTMTFHSKFGIRTPNATSGSLENN | soluble |
| MGHHHHHHSHMNILFLQWKVKLPPQKEVITSDELMAHLGNCLLSIKPQEKSEGLQLNFQQNVDDAMTVLPKLATGLDVNVRFTGVSDFEYTPECSVFDLLGIPLYHGWLVDPQSPEAVRAVGKLSYNQLVERIITCKHSSDTNLVTEGLIAEQFPETTAAQLTYHGLCELTAAAKEGELSVFFRNNHFSTMTKHKSHLYLLVTDQGFLQEEQVVWESLHNVDGDSCFCDSDFHLRHSLGKGPGAEGGSGSPEKQLQVDQDYLIALSLQQQQPRGPLGLTDLELAQQLQQEEYQQQQAAQPVRMRTRVLSLQGRGATSGRPAGERRQRPKHESDCILL | not soluble |
| AGKATANAPTDAAITAASDFAALEKACAGRLGVTLLDTASGRRIGHRQDERFPMCSTFKSMLAATVLSQAERMPALLDRRVPVGEADLLSHAPVTRRHAGKDMTVRDLCRATIITSDNTAANLLFGVVGGPPAVTAFLRASGDTVSRSDRLEPELNSFAKGDPRDTTTPAAMAATLQRVVLGEVLQPASRQQLADWLIDNETGDACLRAGLGKRWRVGDKTGSNGEDARNDIAVLWPVAGGAPWVLTAYLQAGAISYEQRASVLAQVGRIADRLIG | soluble |
| MPGTKQVNVGSLKVGQYVMIDGVPCEIVDISVSKPGKHGGAKARVVGIGIFEKVKKEFVAPTSSKVEVPIIDRRKGQVLAIMGDMVQIMDLQTYETLELPIPEGIEGLEPGGEVEYIEAVGQYKITRVIGGK | soluble |
| MDNIQQEKLKNLIRSLEKSASPQEAEYLMGEILVPLLAEDGYSIQAVGDQRDFGVDFIARKDKHEEQFPEEIAIEYKHYRKAAVGLDVVHRVLGAAMSMGLSRAMVITNSRFTYAAREAIRRSSPVGVELLDIDALRSWIGRIEEVPSIDVVQVNIIRREFSRRLIELILKNPRYLDEIEWREMERLLAEVFEGLGFSVRLTPGSKDGGKDIILTCQVATKNHTYYVEVKHWRSGQRVGSGAITEFLNVIINEQIDGGLYLSTYGYCSNSIESLTEIQRKSLRFGTENKVVTLCQSYVKAMSGIWAPDKLLPEVLYDNTL | not soluble |
| AIAERSFVWLSCLDSDSCNLTFRLGEVESHACSPSLLWNLLTQYLPPGAGHILRTYNFPVLSCVSSCHLIGGKMPEN | soluble |
| MAFRVLVIGGYGNFGSLICNHLAMMPDIELVISGRDPRKLAEKVAALQTLAGRFCQSWCVDIMQDGAGSELGELGIDLLIHTAGPFQGQSYAVARHCIAAGVNYCDLSDCRTFVSGIATLDALAREAGVCVLSGCSSVPTLSAAIIDQHRQRFLRIDSIEHGISSAAKMPGLSTVR | not soluble |
| MSLDKLNAISIFCKVIETQSFTLAAKQQNISVAMASKLVSQLEEHLKTRLLQRTTRKIMPTEAGMMYYQRCQGILLDLDEADSSITQLTSSLQGNLLISVPRDFGLLFIAPNLPTFMAKHPHLHIEVEFNDKKIDLLSEGYDLALRIGYMEDSSLVSRKIGTTTVHFAASPNYLETNGIPQTPDDLEHHNGLLYKNAMNQVNWVGSRINQTQRFKIQSKVVSNSGFALLNMAKAGLGIANLPKFILGRAFEKGELIEILPEYKQQKLEIHVVYPNRRHLPIKVTGISLNFEGHHHHHH | not soluble |
| MSLDRPRCCLRGKECSINRFQQVESRWGYSGTSDRIRFSVNKRIFVVGFGLYGSIHGPTDYQVNIQIIHTDSNTVLGQNDTGFSCDGSASTFRVMFKEPVEVLPNVNYTACATLKGPDSHYGTKGMRKVTHESPTTGAKTCFTFCYAAGNNNGTSVEDGQIPEVIFYTEGHHHHHH | soluble |
| PRHRLLVVGAGQLSRYLCEMAIALDFDVTVSDPRQEYRAGWQVEGVALTTAMPDDMVIAARPDARTAVIALTHDPKLDDLALIDALQTPAFYVGALGSRANHARRVARLREHFGLTPAQLARLRGPAGIY | not soluble |
| MAIGVQKKTSTPLDVGTEQEPTNLEKTIGTLRRCLQIAGTSNKPGSRSAKNSISEESNDLTMEESVPEASKWPHCQHMISQDEAPRNDELASPNIRIVAYKDESQINDIMRLITKDLSEPYSIYTYRYFLHNWPEYCFLAYDQTNNTYIGAVLCKLELDMYGRCKGYLAMLAVDESCRRLGIGTRLVRRALDAMQSKGCDEIVLETEVSNKNAQRLYSNLGFIRQKRLLKYYLNGGDAFRLKLIFTSRRVRSLNNQENYQPRCRVNEDDTPDEEEGTY | not soluble |
| MGNWITSTFLRFDLFQRHQPNRFLEYTRVQHSNQSPAYSVRTAAEIVAHQRMKPNHSNDSDTDFSSDDEGCPKMTPHEEQQMFEREQHIAFSGRCHIGDPESCTQLRNEINSRCGPRPSTSNNMEFILNRDLQKRGTSISNPRTVARVLNSHLPNQKRRVDRVATKSFCTQYIQNGTKIVVASQDEKIRFYQRNPDKSKYRSKYMKSDELRVDQCGWSILDTAISLNGDLIAYGTWKDAVFVGKLDFTERQNITWFPIDLNGEPGRDHCAVFCVKFSDSSEQIVCGTSQYSIHVFDVEQRRRIRTIVNAHEDDVNSVCFADLGSNLIYSAGDDGLVKVWDKRAWSDGDVEPVGVFAGHRDGVTHVDSRQDERYLLSNSKDQTIKVWDLRKFSNMSGVEATRACVQSQHWDYRWQPAPPGLCQPVAGDTSVMTLRGHSVLHTLVRANFSPESTGRRYIYTGCARGEVVVYDIMSGTVSRRLKGHTAVVRECDWHPTENEIVSSAWDGVTTVWTWDERQEGVIAPYDHPNISQFGDEDSCDELFQPVKKQCRRQRKTMSSRGHPCSSSSISQN | not soluble |
| MKALNLKTPGREDDDVDEVLDENTVQDVNENIMLKGLGGKENLQTIDHCATRLRLTVKDTALVDEALLKKAGAKGVVKSGGQSVQVIIGPNVEFAAEELRAAVK | not soluble |
| MKQIESAKNQKVKDWKKLHTKKERTKTNTFLIEGEHLVEEALKSPGIVKEILVKDETRIPSDLETGIQCYMLSEDAFSAVTETETPQQIAAVCHMPEEKLATARKVLLIDAVQDPGNLGTMIRTADAAGLDAVVLGDGTADAFNGKTLRSAQGSHFHIPVVRRNLPSYVDELKAEGVKVYGTALQNGAPYQEIPQSESFALIVGNEGAGVDAALLEKTDLNLYVPLYGQAESLNVAVAAAILVYHLRG | soluble |
| MNTTPFPALSAETLLAVNTVGQWLAQNDFSGEQPYSSDCVVLAGNAVIPTIDAACRIAKAQGVPLLISGGIGHSTPFLYAVIARHPRYHTIRTSGRAEAAILADIANQFWHIPAEKIWLEDRSTNCGENARFSCALIRQAKENINTAIVVQDPTMQRRTIAAFRRVTNDDTDAPRWLSFPGFVPVLRHLNDGTRFANVEEGIWTVERYLSLIAGELPRLRDDETGYGPRGKDFIIHVDIPRDIENAWQVLQADTTLRSALGQRALRLEHHHHHH | soluble |

From the DeepSol protein solubility set
